Assay results: patent US20200131249A1 (EVOLVERITAS KFT, published 2020)
Where no end group is shown, it is not given here.

T1: human MASP-3 catalytic fragment CCP1-CCP2-SP (human, UniProt P48740-2 298-728, limits assumed)
T1 construct: domain: CCP1-CCP2-SP
T1 sequence (looked up): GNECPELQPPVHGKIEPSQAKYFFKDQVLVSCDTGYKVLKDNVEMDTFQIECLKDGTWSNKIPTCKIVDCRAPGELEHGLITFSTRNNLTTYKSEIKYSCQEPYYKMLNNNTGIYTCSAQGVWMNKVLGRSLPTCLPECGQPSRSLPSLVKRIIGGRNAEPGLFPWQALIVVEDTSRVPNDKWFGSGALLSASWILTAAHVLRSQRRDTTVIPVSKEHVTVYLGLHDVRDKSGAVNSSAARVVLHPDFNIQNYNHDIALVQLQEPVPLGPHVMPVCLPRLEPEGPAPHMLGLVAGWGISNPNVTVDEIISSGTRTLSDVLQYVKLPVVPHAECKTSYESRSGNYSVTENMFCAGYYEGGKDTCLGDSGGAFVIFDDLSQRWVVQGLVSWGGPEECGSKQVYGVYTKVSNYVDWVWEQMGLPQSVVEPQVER

T2: human MASP-1 catalytic fragment CCP1-CCP2-SP (human, UniProt P48740 298-699, limits assumed)
T2 construct: domain: CCP1-CCP2-SP
T2 sequence (looked up): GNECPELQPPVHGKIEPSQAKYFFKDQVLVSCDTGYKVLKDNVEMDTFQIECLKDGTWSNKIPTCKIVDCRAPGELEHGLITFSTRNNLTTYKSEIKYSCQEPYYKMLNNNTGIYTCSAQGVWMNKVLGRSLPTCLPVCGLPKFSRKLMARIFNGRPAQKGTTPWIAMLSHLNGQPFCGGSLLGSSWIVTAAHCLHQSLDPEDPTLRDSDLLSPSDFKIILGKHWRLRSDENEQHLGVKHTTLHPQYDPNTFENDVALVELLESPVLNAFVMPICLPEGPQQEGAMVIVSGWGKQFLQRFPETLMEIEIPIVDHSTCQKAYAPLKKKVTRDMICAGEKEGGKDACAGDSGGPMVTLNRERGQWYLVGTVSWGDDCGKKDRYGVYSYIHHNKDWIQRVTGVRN

T3: TFPI-D2, second Kunitz domain (residues 121-178) of human Tissue Factor Pathway Inhibitor-1 (human, UniProt P10646 121-178)
T3 construct: Recombinant, made as m1; also called parental TFPI-D2; human TFPI-D2
T3 sequence: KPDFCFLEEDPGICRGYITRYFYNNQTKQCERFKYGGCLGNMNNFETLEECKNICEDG

B1: rat MASP-2 catalytic fragment CCP1-CCP2-SP (enzyme)
chain: MTQPCPDPTAPPNGHISPVQATYVLKDSFSVFCKTGFELLQGSVPLKSFTAVCQKDGSWDRPIPECSIIDCGPPDDLPNGHVDYITGPEVTTYKAVIQYSCEETFYTMSSNGKYVCEADGFWTSSKGEKSLPVCKPVCGLSTHTSGGRIIGGQPAKPGDFPWQVLLLGETTAAGALIHDDWVLTAAHAVYGKTEAMSSLDIRMGILKRLSPHYTQAWPEAVFIHEGYTHGAGFDNDIALIKLKNKVTINRNIMPICLPRKEAASLMKTDFVGTVAGWGLTQKGFLARNLMFVDIPIVDHQKCATAYTKQPYPGAKVTVNMLCAGLDAGGKDSCRGDSGGALVFLDNETQRWFVGGIVSWGSINCGGSEQYGVYTKVTNYIPWIENIINNF
notes: Mw 42309 Da; also called rat MASP-2cf; MASP2cf

Assays:
[1] = target: T4, human MASP-2 catalytic fragment CCP1-CCP2-SP (human, UniProt O00187 287-686, limits assumed); experiment: ratio of Ki values, enzyme inhibition
T4 construct: domain: CCP1-CCP2-SP; also called human MASP-2cf; human MASP2cf
Protocol: (§1) For determining the KI of the inhibitors on MASP enzymes we used catalytic enzyme fragments containing the three C-terminal domains: CCP1-CCP2-SP. The synthetic substrate used in the measurements was Z-L-Lys-SBzl hydrochloride (Sigma, C3647), from which a 10 mM stock solution was prepared. The reactions were performed in a volume of 0.2 ml at room temperature in a buffer consisting of 20 mM HEPES; 145 mM NaCl; 5 mM CaCl₂; 0.05% Triton-X100. The substrate cleaved by the enzyme entered into a reaction with the 5,5′-Dithiobis(2-nitrobenzoic acid) (DTNB, Ellman's reagent, Sigma—D8130) auxiliary substrate present in the solution in 2-fold excess to Z-L-Lys-SBzl. The release of the chromophore group created in this way was monitored via the change of absorbance at 410 nm using a BioTek Synergy H4 multimode microplate reader.
(§2) A dilution sequence was prepared from the individual inhibitors, the enzyme was added to it, and it was incubated for 2 hours at room temperature. The samples were transferred on a 96-well microtiter plate (Nunc 269620). The reactions were started by adding the mixture of the substrate and the auxiliary substrate to the samples. The concentration of the substrate and the length of the measuring period were chosen so that under the given conditions the enzyme should consume less than 10% of the substrate. In this case we used 250 μM Z-L-Lys-SBzl and 500 μM DTNB in the reactions. In the course of measuring, a method developed for the characterisation of tight-binding inhibitors was used (Empie, 1982). The concentration of the product was measured as a function of reaction time. The slope of the straight line determined for the initial phase of the reaction was normalised with the slope obtained for the uninhibited enzyme reaction, and this value was multiplied with the total enzyme concentration. As a result of this we obtained the free enzyme concentration, which was plotted as a function of the total inhibitor concentration and the Ki value was determined according to the following equation: […]

[2] = target: T1, human MASP-3 catalytic fragment …; experiment: enzyme inhibition, Z-L-Lys-SBzl/DTNB, catalytic fragment
Protocol: as §1, §2

[3] = target: T2, human MASP-1 catalytic fragment …; experiment: as above
Protocol: as §1, §2

[4] = target: T4, human MASP-2 catalytic fragment …; experiment: enzyme inhibition, Z-L-Lys-SBzl/DTNB, tight-binding fit, catalytic fragment CCP1-CCP2-SP
Protocol: as §1, §2
(§3) where E is the free (uninhibited) enzyme concentration, and E₀ is the total enzyme concentration. The stock concentration of the inhibitors was determined by titration with bovine trypsin of known concentration. The results were calculated as the average of parallel measurements.

[5] = target: B1; experiment: as above
Protocol: as §1, §2, §3

[6] = target: T5, human MASP-2 enzyme as present in normal human serum (human, UniProt O00187 16-686); experiment: cell-based or functional assay
[7] = target: bovine trypsin (Sigma-T1426) (bovine, UniProt P00760 24-246); experiment: fluorometric residual activity, Z-Gly-Pro-Arg-AMC, tight-binding fit
Protocol: The KI values of the inhibitors on bovine trypsin were also determined. In these experiments, we used bovine trypsin (Sigma—T1426). The concentration of trypsin was determined by fluorescent active-site titration based on Jameson 1973. The measurements were done in 200 μL final assay volume of 50 mM Tris, 10 mM CaCl2, 0.005% Triton X-100 pH 8.0 buffer on 96-well black microtiter plates (Thermo Scientific Sterilin—611F96BK) using a BioTek Synergy H4 multimode microplate reader.
Constant predefined concentrations of the enzymes were mixed with serial dilutions of the inhibitors and co-incubated at room temperature until reaching equilibrium. The incubation times were 5 h in the case of the protein according to SEQ ID NO: 11, 8 h in the case of TFPI-D2 and the protein according to SEQ ID NO: 17 and 24 h in the case of the protein according to SEQ ID NO: 14. Then, 10 μM (final concentration) of Z-Gly-Pro-Arg-AMC substrate was added to the samples. The concentration of the free enzyme was determined through measuring the residual enzyme activity in a fluorometric kinetic assay at 380 nm excitation wavelength and 460 nm emission wavelength in two parallel experiments. Analyses of the data were done as described above.

[8] = target: B1; experiment: ratio of Ki values, enzyme inhibition
Protocol: as §1, §2

[9] = target: T5, human MASP-2 enzyme as present in …; experiment: cell-based or functional assay; remark: listed apart in the source
[10] = target: T3, TFPI-D2, second Kunitz domain (residues …); experiment: enzyme inhibition
[11] = target: T1, human MASP-3 catalytic fragment …; experiment: enzyme inhibition, Z-L-Lys-SBzl/DTNB, catalytic fragment; approximation based on a single measurement
Protocol: as §1
A dilution sequence was prepared from the individual inhibitors, the enzyme was added to it, and it was incubated for 2 hours at room temperature. The samples were transferred on a 96-well microtiter plate (Nunc 269620). […] The concentration of the product was measured as a function of reaction time. The slope of the straight line determined for the initial phase of the reaction was normalised with the slope obtained for the uninhibited enzyme reaction, and this value was multiplied with the total enzyme concentration. […]

[12] = target: rat MASP-2 as present in rat serum (rat, UniProt Q9JJS8 20-685); experiment: cell-based or functional assay

bovine trypsin (Sigma-T1426), sequence (P00760 24-246): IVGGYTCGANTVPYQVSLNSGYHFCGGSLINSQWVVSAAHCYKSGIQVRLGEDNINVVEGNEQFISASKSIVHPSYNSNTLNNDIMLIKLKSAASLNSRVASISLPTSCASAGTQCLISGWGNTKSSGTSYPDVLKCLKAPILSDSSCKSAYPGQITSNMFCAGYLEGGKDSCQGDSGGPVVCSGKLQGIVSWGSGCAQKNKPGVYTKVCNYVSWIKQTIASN
T5 sequence (O00187 16-686 limits assumed): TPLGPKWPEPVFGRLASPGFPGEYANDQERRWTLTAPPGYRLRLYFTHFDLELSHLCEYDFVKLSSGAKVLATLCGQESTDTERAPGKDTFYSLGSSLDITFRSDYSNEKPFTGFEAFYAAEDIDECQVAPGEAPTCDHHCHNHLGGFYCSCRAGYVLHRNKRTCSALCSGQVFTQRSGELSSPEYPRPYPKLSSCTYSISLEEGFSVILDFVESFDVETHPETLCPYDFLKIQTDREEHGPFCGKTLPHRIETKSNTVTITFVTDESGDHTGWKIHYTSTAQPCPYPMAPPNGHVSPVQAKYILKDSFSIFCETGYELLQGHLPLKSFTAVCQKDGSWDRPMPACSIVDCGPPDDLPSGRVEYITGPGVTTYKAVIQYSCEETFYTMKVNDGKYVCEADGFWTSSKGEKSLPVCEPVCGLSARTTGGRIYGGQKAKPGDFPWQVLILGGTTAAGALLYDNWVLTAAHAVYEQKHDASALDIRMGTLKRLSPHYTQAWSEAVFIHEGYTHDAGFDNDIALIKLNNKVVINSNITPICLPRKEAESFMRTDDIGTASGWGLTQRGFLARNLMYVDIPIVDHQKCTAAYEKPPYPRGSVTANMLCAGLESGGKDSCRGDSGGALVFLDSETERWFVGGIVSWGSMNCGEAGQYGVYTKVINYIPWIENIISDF
T4 sequence (O00187 287-686 limits assumed): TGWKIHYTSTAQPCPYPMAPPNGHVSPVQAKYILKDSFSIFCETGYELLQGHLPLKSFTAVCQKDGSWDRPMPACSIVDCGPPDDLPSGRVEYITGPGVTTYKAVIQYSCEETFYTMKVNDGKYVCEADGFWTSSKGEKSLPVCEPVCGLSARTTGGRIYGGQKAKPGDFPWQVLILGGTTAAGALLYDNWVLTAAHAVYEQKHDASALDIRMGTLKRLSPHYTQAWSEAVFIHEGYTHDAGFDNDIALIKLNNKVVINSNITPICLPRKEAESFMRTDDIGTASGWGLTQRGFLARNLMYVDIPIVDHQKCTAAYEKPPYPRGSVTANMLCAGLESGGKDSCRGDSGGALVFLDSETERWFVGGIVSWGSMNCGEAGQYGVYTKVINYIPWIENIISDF

Row | Binder | fold more potent than SGMI-2 [1] | binding result [2] | binding result [3] | Ki [4] | Ki [5] | IC50 (nM), lectin pathway activity in diluted human serum (WIELISA, C5b-9) [6] | Ki [7] | fold reduction of binding affinity against the protein of SEQ ID NO: 11 [1] | fold higher binding affinity than human TFPI-D2 [8] | fold more potent than SGMI-2 [8] | fold of the lectin pathway IC50 against SGMI-2 [9] | binding result [10] | Ki [11] | IC50 (nM), C3 deposition, lectin pathway in diluted rat serum on mannan [12] | IC50 (nM), C4 deposition, lectin pathway in diluted rat serum on mannan [12] | IC50 (nM), C5b-9 deposition, lectin pathway in diluted rat serum on mannan [12]
1 | protein according to SEQ ID NO: 11 (TFPI-D2 variant with the inhibitor loop FCRAVKR) (designed binder, ends and bridges not checked; cysteine pairing not given here, Made in E. coli as a His6-S100A4 fusion and freed by TEV protease) KPDFCFLEEDPGFCRAVKRRYFYNNQTKQCERFKYGGCLGNMNNFETLEECKNICEDG | 3 fold | no binding | no binding | 2 nM | 640 nM | 35 nM | 0.094 nM | – | – | – | – | – | – | – | – | –
2 | protein according to SEQ ID NO: 17 (TFPI-D2 variant with the inhibitor loop VCRAVKR) (designed binder, ends and bridges not checked; cysteine pairing not given here, Made as m1) KPDFCFLEEDPGVCRAVKRRYFYNNQTKQCERFKYGGCLGNMNNFETLEECKNICEDG | – | no binding | no binding | 36.7 nM | 7.5 nM | 380 nM | 0.017 nM | 18 fold | 25 fold | ~3 fold | 2 fold | – | – | – | – | –
3 | B1 | – | – | – | – | – | – | – | – | – | – | – | binds | – | – | – | –
4 | protein according to SEQ ID NO: 14 (TFPI-D2 variant with the inhibitor loop PCRAVKR) (designed binder, ends and bridges not checked; cysteine pairing not given here, Made as m1) KPDFCFLEEDPGPCRAVKRRYFYNNQTKQCERFKYGGCLGNMNNFETLEECKNICEDG | – | – | no binding | 7.9 nM | 7.2 nM | 90 nM | 0.004 nM | 4 fold | 25 fold | ~3 fold | – | – | ~30000 nM | 869 nM | 108 nM | 940 nM
5 | GSGEVTCEPGTTFKDKCNTCRCGSDGKSAVCTKLWCNQ (designed binder, Comparator from WO 2012/007777) [SGMI-2 (SGCI-based MASP inhibitor 2)] | – | – | no binding | 8.1 nM | 22.7 nM | 174 nM | 100 nM | – | – | – | – | – | – | 2240 nM | 457 nM | 4000 nM
